Measurements from US20250262210A1 (TRUSTEES OF COLUMBIA UNIVERSITY IN THE CITY OF NEW YORK, published 2025).

Legend:
Assay in all cases: IP/MS, LZTR1 wild type-FLAG, U87
PARP10 = molecular target: T1, PARP10 (human, UniProt Q53GL7 1-1025)
T1 sequence (looked up): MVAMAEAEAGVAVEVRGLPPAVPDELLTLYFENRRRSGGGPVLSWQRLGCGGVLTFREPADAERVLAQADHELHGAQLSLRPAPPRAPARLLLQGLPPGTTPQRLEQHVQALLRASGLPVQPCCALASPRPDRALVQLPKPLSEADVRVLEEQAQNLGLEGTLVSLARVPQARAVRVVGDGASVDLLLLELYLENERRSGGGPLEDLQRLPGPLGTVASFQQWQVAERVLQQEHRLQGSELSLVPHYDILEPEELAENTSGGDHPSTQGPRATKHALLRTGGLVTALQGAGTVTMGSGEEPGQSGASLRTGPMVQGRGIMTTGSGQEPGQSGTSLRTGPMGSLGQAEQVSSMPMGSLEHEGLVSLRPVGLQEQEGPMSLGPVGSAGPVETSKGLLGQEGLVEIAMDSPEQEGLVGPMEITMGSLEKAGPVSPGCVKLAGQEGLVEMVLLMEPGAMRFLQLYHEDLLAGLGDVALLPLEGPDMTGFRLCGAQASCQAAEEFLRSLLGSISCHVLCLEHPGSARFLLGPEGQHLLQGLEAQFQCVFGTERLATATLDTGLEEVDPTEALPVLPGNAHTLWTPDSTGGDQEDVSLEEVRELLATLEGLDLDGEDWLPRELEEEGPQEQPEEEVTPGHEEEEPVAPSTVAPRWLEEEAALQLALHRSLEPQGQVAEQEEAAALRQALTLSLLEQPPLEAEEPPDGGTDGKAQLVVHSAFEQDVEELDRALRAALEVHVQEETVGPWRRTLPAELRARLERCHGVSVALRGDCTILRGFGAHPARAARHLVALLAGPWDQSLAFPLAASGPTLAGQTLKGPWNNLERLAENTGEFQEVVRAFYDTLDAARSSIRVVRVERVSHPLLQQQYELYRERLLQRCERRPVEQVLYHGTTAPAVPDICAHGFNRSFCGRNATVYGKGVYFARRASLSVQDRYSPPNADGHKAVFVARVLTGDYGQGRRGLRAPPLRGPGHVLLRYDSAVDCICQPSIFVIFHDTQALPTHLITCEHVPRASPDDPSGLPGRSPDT
Outline: (§1)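 Read-out: spectral counts from LC-MS/MS (Orbitrap Fusion) after MaxQuant identification. Variable modifications were Met oxidation, protein N-terminal acetylation and N/Q deamidation.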

RTTN = RTTN (human, UniProt Q86VV8 1-2226, limits assumed)
Outline: as §1

DMXL2 = DMXL2 (human, UniProt Q8TDJ6 1-3036, limits assumed)
Outline: as §1

CDC42BPB = CDC42BPB (human, UniProt Q9Y5S2 1-1711)
Outline: as §1

SNX14 = molecular target: T2, SNX14 (human, UniProt Q9Y5W7 1-946, limits assumed)
T2 sequence (looked up): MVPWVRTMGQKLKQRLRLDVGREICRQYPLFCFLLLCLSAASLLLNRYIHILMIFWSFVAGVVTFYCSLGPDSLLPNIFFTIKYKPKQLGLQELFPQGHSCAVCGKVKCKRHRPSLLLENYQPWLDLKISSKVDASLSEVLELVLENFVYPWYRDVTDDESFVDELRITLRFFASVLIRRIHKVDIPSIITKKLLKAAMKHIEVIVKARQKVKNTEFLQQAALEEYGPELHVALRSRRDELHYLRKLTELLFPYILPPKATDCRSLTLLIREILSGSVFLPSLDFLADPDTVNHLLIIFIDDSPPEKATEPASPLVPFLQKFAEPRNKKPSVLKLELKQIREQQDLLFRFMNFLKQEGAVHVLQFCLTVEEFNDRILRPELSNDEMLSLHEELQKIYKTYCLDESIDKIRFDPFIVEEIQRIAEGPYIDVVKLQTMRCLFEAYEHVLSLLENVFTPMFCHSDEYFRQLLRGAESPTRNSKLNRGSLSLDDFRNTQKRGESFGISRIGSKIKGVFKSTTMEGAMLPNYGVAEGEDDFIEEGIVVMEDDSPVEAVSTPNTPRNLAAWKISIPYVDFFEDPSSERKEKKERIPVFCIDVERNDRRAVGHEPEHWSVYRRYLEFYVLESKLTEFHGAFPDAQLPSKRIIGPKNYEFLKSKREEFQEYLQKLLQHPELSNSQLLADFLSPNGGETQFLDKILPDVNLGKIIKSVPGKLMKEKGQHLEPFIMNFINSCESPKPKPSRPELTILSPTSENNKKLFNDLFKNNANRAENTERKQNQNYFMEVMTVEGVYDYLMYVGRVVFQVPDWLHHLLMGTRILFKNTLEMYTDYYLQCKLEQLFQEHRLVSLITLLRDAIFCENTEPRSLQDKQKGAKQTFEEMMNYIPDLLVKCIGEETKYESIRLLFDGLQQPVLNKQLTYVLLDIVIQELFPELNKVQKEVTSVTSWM
Outline: as §1

RICTOR = RICTOR (human, UniProt Q6R327 1-1708, limits assumed)
Outline: as §1

TUBGCP2 = TUBGCP2 (human, UniProt Q9BSJ2 1-902, limits assumed)
Outline: as §1

Measured: binding result

Sequence of RTTN (Q86VV8 whole entry): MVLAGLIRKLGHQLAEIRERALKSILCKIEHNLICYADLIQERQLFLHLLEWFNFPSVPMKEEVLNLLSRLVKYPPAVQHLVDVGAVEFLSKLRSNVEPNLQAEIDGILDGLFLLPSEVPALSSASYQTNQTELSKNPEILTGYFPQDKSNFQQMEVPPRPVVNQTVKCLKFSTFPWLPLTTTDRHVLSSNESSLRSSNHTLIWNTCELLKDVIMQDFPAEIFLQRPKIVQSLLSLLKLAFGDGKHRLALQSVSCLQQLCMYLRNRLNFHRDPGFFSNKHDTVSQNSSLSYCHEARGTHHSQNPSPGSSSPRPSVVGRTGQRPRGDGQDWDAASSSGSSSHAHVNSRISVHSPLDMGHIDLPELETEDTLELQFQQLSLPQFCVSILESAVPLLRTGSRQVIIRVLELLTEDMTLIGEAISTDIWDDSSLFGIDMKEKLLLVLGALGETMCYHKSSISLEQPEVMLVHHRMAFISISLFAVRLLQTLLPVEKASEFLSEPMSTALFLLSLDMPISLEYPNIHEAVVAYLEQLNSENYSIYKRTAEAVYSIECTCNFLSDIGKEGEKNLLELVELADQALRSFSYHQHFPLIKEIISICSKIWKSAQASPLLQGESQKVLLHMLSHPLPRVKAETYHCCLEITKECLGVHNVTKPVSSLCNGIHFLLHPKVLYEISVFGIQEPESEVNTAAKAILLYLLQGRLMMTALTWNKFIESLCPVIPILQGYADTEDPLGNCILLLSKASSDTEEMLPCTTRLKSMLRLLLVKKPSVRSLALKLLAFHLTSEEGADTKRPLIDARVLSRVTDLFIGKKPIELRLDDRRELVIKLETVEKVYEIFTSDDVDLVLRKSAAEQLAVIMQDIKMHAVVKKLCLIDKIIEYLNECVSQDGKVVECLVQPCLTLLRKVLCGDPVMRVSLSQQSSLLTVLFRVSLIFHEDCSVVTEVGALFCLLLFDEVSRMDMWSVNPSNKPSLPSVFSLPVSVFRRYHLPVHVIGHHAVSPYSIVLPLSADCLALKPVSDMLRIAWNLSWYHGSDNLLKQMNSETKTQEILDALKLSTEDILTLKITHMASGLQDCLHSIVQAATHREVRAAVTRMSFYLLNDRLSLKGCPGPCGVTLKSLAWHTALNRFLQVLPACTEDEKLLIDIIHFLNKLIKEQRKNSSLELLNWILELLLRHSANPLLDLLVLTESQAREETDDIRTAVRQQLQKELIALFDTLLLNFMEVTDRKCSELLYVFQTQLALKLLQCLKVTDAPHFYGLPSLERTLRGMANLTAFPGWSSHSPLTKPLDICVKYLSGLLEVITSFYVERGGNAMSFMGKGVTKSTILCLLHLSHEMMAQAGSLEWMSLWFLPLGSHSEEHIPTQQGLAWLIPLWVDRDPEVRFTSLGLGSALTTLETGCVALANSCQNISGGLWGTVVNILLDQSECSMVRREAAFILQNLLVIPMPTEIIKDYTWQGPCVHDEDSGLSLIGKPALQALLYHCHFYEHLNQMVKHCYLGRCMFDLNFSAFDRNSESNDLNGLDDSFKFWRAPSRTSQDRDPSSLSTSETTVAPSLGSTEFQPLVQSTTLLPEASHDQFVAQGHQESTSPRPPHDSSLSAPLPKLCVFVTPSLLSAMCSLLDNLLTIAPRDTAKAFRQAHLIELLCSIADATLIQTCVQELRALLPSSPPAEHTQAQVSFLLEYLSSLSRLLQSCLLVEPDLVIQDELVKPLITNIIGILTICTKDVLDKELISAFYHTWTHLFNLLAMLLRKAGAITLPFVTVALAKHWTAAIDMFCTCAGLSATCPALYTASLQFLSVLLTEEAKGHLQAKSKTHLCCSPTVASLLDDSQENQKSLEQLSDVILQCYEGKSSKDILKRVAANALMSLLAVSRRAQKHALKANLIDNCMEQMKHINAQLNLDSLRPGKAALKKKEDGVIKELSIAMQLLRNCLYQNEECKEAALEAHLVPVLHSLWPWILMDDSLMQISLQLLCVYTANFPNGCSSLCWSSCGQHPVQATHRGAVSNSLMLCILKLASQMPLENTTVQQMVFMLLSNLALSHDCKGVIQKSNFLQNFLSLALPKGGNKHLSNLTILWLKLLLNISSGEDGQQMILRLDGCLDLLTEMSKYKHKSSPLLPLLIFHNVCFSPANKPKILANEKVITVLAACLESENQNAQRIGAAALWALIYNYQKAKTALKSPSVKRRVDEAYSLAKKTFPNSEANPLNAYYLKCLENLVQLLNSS
Sequence of TUBGCP2 (Q9BSJ2 whole entry): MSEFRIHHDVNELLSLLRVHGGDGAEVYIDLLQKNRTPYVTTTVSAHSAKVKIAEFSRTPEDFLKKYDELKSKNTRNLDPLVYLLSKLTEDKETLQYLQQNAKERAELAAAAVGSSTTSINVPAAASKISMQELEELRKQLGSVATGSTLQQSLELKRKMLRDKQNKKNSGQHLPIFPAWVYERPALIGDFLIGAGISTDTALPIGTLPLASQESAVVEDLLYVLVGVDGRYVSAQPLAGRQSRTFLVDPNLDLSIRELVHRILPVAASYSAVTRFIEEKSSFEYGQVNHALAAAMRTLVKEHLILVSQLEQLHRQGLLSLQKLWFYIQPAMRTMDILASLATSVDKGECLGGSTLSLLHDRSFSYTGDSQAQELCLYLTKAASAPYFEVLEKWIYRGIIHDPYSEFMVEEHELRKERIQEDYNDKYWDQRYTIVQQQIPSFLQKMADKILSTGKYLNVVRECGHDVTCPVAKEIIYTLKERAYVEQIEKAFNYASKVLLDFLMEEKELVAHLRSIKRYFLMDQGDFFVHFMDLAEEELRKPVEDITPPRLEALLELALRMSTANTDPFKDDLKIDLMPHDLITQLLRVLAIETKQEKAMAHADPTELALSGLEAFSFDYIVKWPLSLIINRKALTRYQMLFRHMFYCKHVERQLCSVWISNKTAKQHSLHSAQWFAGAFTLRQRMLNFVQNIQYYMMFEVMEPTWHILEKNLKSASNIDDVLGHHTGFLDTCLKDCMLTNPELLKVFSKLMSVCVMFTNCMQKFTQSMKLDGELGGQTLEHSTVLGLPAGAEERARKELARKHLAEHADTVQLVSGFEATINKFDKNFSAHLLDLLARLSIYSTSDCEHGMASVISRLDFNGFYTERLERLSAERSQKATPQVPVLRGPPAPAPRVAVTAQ
Sequence of RICTOR (Q6R327 whole entry): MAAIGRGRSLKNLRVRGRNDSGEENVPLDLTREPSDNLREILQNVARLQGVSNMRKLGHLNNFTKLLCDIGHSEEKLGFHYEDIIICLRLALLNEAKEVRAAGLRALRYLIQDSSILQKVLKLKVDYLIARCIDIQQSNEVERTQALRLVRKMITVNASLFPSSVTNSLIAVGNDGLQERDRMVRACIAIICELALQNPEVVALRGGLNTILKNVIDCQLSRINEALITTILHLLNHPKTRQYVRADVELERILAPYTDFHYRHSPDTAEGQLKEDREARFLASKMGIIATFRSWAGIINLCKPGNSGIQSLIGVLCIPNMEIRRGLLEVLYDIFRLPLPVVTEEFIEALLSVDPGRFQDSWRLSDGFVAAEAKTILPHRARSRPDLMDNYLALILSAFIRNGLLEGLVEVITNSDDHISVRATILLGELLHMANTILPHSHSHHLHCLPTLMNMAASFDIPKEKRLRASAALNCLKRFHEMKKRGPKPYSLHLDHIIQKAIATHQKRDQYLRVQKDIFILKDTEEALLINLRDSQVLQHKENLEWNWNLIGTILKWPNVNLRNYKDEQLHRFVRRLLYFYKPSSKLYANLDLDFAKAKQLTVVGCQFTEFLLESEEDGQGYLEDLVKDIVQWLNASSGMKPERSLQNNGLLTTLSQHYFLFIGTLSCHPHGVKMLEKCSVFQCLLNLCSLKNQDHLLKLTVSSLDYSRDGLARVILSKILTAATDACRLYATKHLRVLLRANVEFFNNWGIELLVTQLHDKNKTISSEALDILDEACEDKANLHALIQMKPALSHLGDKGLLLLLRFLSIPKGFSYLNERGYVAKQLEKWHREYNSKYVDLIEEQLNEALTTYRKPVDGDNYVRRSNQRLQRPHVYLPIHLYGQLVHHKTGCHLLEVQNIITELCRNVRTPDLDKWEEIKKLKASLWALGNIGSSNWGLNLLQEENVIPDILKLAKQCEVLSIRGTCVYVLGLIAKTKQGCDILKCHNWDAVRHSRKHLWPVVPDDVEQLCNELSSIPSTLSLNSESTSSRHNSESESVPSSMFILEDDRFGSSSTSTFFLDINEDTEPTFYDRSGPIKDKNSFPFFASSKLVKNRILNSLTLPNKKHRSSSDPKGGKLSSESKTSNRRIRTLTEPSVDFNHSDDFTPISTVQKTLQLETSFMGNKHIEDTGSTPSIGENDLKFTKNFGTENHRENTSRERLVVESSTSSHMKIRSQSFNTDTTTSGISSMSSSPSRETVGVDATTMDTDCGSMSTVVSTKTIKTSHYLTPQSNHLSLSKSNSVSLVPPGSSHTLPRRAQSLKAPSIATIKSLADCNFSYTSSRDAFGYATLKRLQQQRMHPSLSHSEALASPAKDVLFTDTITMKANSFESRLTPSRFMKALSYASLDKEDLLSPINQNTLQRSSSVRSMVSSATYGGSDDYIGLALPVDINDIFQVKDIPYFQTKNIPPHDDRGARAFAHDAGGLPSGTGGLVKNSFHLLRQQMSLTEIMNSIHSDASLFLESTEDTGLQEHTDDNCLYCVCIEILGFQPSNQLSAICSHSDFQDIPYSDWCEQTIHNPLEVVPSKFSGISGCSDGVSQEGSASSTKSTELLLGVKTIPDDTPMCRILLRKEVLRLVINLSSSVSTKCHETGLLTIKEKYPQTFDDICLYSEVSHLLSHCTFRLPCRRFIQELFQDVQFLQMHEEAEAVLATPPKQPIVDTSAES

B1: LZTR1-FLAG (other, human, UniProt Q8N653 1-840, looked up)
chain: MAGPGSTGGQIGAAALAGGARSKVAPSVDFDHSCSDSVEYLTLNFGPFETVHRWRRLPPCDEFVGARRSKHTVVAYKDAIYVFGGDNGKTMLNDLLRFDVKDCSWCRAFTTGTPPAPRYHHSAVVYGSSMFVFGGYTGDIYSNSNLKNKNDLFEYKFATGQWTEWKIEGRLPVARSAHGATVYSDKLWIFAGYDGNARLNDMWTIGLQDRELTCWEEVAQSGEIPPSCCNFPVAVCRDKMFVFSGQSGAKITNNLFQFEFKDKTWTRIPTEHLLRGSPPPPQRRYGHTMVAFDRHLYVFGGAADNTLPNELHCYDVDFQTWEVVQPSSDSEVGGAEVPERACASEEVPTLTYEERVGFKKSRDVFGLDFGTTSAKQPTQPASELPSGRLFHAAAVISDAMYIFGGTVDNNIRSGEMYRFQFSCYPKCTLHEDYGRLWESRQFCDVEFVLGEKEECVQGHVAIVTARSRWLRRKITQARERLAQKLEQEAAPVPREAPGVAAGGARPPLLHVAIREAEARPFEVLMQFLYTDKIKYPRKGHVEDVLLIMDVYKLALSFQLCRLEQLCRQYIEASVDLQNVLVVCESAARLQLSQLKEHCLNFVVKESHFNQVIMMKEFERLSSPLIVEIVRRKQQPPPRTPLDQPVDIGTSLIQDMKAYLEGAGAEFCDITLLLDGHPRPAHKAILAARSSYFEAMFRSFMPEDGQVNISIGEMVPSRQAFESMLRYIYYGEVNMPPEDSLYLFAAPYYYGFYNNRLQAYCKQNLEMNVTVQNVLQILEAADKTQALDMKRHCLHIIVHQFTKVSKLPTLRSLSQQLLLDIIDSLASHISDKQCAELGADI
notes: Expressed in HEK 293T, HeLa or U87 cells; used as cell lysate; also called LZTR1 wild type-FLAG; LZTR1 WT; not shown: FLAG tag at the C-terminus
binds: all assays above
